{
  "source": "paper PMC2173870",
  "about": "(The Journal of Cell Biology, 2002)",
  "proteins": {"B1": {"name": "syndecan-4 cytoplasmic tail peptide, PIP2- mutant (Y192KK to LQQ) (peptide, UniProt P34901 175-202, looked up)", "peptide": "RMKKKDEGSYDLGKKPILQQAPTNEFYA"}},
  "target": "the molecule itself",
  "assay": "SEC",
  "note": "Several values for one entry are separate records, joined by “and”; a condition that tells them apart may be missing. Equal values may be shown once.",
  "data": [
    {"protein": "B1", "values": [
      {"measurement": "stoichiometry N", "value": "4 and 6"}
    ]}
  ]
}
